Assay [1] concerns the target variant human IL-13 (R130Q) (human) (UniProt P35225). Put plainly: cell-based or functional assay.
In assay [2] the target is T1, cynomolgus monkey IL-13 (cynomolgus monkey, UniProt Q0PW92 21-132). The assay is described as follows: cell-based or functional assay.
The target of assay [3] is T2, human IL-13 (wild type) (human, UniProt P35225 35-146). Put plainly: cell-based or functional assay.
In assay [4] the target is T1, cynomolgus monkey IL-13. The assay is described as follows: cell-based or functional assay. The source holds these as a separate data set.
In assay [5] the target is T3, Rat IL-13 (rat, UniProt P42203 19-131, limits assumed).
T3 sequence (looked up): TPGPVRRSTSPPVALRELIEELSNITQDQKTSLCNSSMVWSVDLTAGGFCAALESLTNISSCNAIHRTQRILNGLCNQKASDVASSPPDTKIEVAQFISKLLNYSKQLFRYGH
Put plainly: cell-based or functional assay.

Assay [6] has as its target T2, human IL-13 (wild type). Put plainly: Biacore 3000 SPR; purified Ab652 Fab captured by anti-human F(ab')2, hIL-13 as analyte; average of the table's runs. On the procedure: (§1) BIA (Biamolecular Interaction Analysis) was performed using a BIAcore 3000 (BIAcore AB). Affinipure F(ab′)₂ Fragment, goat anti-human IgG, F(ab′)₂ fragment specific (Jackson ImmunoResearch) was immobilised on a CM5 Sensor Chip via amine coupling chemistry to a capture level of ≈4000 response units (RUs). A blank surface was prepared in a similar way, omitting the F(ab′)₂ fragment from the procedure. HBS-EP buffer (10 mM HEPES pH 7.4, 0.15 M NaCl, 3 mM EDTA, 0.005% Surfactant P20, BIAcore AB) was used as the running buffer with a flow rate of 10 μl/min. A 10 μl injection of Ab652 Fab at ˜0.2 μg/mL was used for capture by the immobilised anti-human IgG-F(ab′)₂ to allow sufficient IL-13 binding but also to minimise mass transport limited binding effects. Human IL13 was titrated over the captured Ab652 at various concentrations (10 nM to 0.31 nM) at a flow rate of 30 μL/min The surface was regenerated by a 10 μl it injection of 40 mM HCl, followed by a 5 μl it injection of 5 mM NaOH at a flowrate of 10 μL/min
(§2) Background subtraction binding curves were analysed using the BIAevaluation software (version 3.2) following standard procedures. Kinetic parameters were determined from the fitting algorithm.

The target of assay [7] is T2, human IL-13 (wild type). Put plainly: Biacore 3000 SPR; Ab652 Fab captured by immobilised anti-human F(ab')2, hIL-13 titrated as analyte; average of 3 determinations. On the procedure:
as §1, §2

Values joined by “and” are separate entries in the source; they are usually repeats but may differ in a detail not shown here. Equal entries are not always repeated.

T2 sequence (P35225 35-146 limits assumed): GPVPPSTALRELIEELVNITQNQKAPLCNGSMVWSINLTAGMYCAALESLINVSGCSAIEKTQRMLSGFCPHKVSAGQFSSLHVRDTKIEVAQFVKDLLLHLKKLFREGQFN
T1 sequence (Q0PW92 entry or part of it): as the sequence (P35225 35-146 limits assumed) above, with G1S, R10K, M42V, S67N, H83R, L100V counted along it
variant human IL-13 (R130Q) (human), sequence (P35225 35-146, stated change not applied): as the sequence (P35225 35-146 limits assumed) above

B1: Ab652 (humanised anti-human IL-13 Fab, graft gL1gH2) (Fab, V domains shown)
VH: QVTLKESGPVLVKPTETLTLTCTVSGFSLTNYHVQWIRQPPGKALEWLGVMWSDGDTSFNSVLKSRLTISRDTSKSQVVLTMTNMDPVDTATYYCARDGTIAAMDYFDYWGQGTLVTVSS
VL: DIQMTQSPSSLSASVGDRVTITCLASEDISNYLAWYQQKPGKAPKLLIYHTSRLQDGVPSRFSGSGSGTDFTLTISSLQPEDFATYYCQQGYRFPLTFGGGTKVEIKR
notes: also called Ab652 Fab
In turn, B1 showed an IC50 Ab652 Fab, HEK-Blue STAT-6 assay; IL-13 source natural human T cell, R130Q variant (250 pg/ml) in assay [1] of 1.66 ng/mL. The “neutralisation potency against cynomolgus IL-13 relative to human IL-13 from rat fibroblasts, HEK Blue assay” value in assay [2] was at most 3 fold. Further, in assay [3], the “IC50 Ab652 Fab, HEK-Blue STAT-6 assay; IL-13 source E. coli-derived, wild type (250 pg/ml)” value turned out to be 1.05 ng/mL; the “IC50 Ab652 Fab, HEK-Blue STAT-6 assay; IL-13 source mammalian (rat fibroblasts), wild type (250 pg/ml)” value was 0.57 ng/mL; the “IC50 Ab652 Fab, HEK-Blue STAT-6 assay; IL-13 source natural human T cell, wild type (250 pg/ml)” value was 2.12 ng/mL; the “IC50 Ab652 Fab, HEK-Blue STAT-6 assay; nebulised Fab (IL-13 source of this row not given)” value is 1.15 ng/mL. Further, in assay [4], the “IC50 Ab652 Fab, HEK-Blue STAT-6 assay; cynomolgus IL-13 on human receptor (1/4,000 = 250 pg/ml)” value is 1.61 ng/mL. Besides, the “IC50 of Ab652, HEK Blue assay; recombinant mammalian cell derived rat IL-13 (transfected HEK293 supernatant), n = 1” value in assay [5] is 953 ng/ml and 20000 pM. In assay [6], the Kd was 0.0134 nM and 0.013 nM; the koff came to 6.27e-05 s⁻¹; the kon is 4.82e+06 M⁻¹ s⁻¹. Moreover, in assay [7], the dissociation constant Kd was 0.0152 nM and 0.015 nM; the koff came to 6.52e-05 s⁻¹; the on-rate constant (kon) was determined as 4.51e+06 M⁻¹ s⁻¹.

The record behind these values is patent US20100260773A1 (UCB, published 2010).
